According to the supplement of paper PMC10724198:
± gives the standard deviation of the averaged measurements.

Experiments:
[1] = test system: Saccharomyces cerevisiae; assay: protein stability index of tFT-peptide fusion (C-terminal peptide) (PSI (0-1 scale)); higher = more stable (slower turnover); conditions: genetic background: wild type; temperature: 30 C
[2] = test system: Saccharomyces cerevisiae; assay: as above
Method: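 MPS profiling in S. cerevisiae of the tFT-X12 degron library: putative degron peptides plus stable controls, 12 aa, fused to the C-terminus of a sfGFP-mCherry timer. Cells are FACS-sorted into 8 mCherry/sfGFP bins and deep-sequenced. PSI runs from 0 (unstable) to 1 (stable). Backgrounds are wild type, das1Δ and doa10Δ at 30 °C, and wild type, das1Δ, cdc34-1 and cdc53-1 at 37 °C; 2-3 technical replicates each.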

[3] = genetic background: cdc34-1, temperature: 37 C
[4] = genetic background: cdc53-1, temperature: 37 C
[5] = genetic background: das1 deletion, temperature: 30 C
[6] = genetic background: das1 deletion, temperature: 37 C
[7] = genetic background: doa10 deletion, temperature: 30 C
[8] = genetic background: wild type, temperature: 30 C
[9] = genetic background: wild type, temperature: 37 C
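Further: PSI is a weighted mean of sequencing reads over stability bins, variants kept only with over 10 reads, mCherry proximal and sfGFP distal, peptide attached via GGGS linker.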

## CFFFCSLFLSFL
[1]
  protein stability index: 0.3662 ± 0.0032
[2]; [3]
  protein stability index: 0.439 ± 0.022
[2]; [4]
  protein stability index: 0.452 ± 0.011
[2]; [5]
  protein stability index: 0.436 ± 0.022
[2]; [6]
  protein stability index: 0.498 ± 0.01
[2]; [7]
  protein stability index: 0.4065 ± 0.001
[2]; [8]
  protein stability index: 0.35 ± 0.0098
[2]; [9]
  protein stability index: 0.431 ± 0.015

## CFFMVGFVFYFV
[1]
  protein stability index: 0.296 ± 0.014
[2]; [3]
  protein stability index: 0.286 ± 0.031
[2]; [4]
  protein stability index: 0.412 ± 0.027
[2]; [5]
  protein stability index: 0.291 ± 0.039
[2]; [6]
  protein stability index: 0.505 ± 0.017
[2]; [7]
  protein stability index: 0.288 ± 0.014
[2]; [8]
  protein stability index: 0.294 ± 0.03
[2]; [9]
  protein stability index: 0.438 ± 0.0094

## CFFSLLLLIFSV
[1]
  protein stability index: 0.377 ± 0.032
[2]; [3]
  protein stability index: 0.4101 ± 0.0016
[2]; [4]
  protein stability index: 0.412 ± 0.024
[2]; [5]
  protein stability index: 0.311 ± 0.041
[2]; [6]
  protein stability index: 0.4838 ± 0.0022
[2]; [7]
  protein stability index: 0.3486 ± 0.0032
[2]; [8]
  protein stability index: 0.31 ± 0.017
[2]; [9]
  protein stability index: 0.4476 ± 0.0032

## CFLLVSLGILCW
[1]
  protein stability index: 0.176 ± 0.094
[2]; [3]
  protein stability index: 0.0312 ± 0.00089
[2]; [4]
  protein stability index: 0.0425 ± 0.02
[2]; [5]
  protein stability index: 0.109 ± 0.036
[2]; [6]
  protein stability index: 0.121 ± 0.003
[2]; [7]
  protein stability index: 0.0685 ± 0.035
[2]; [8]
  protein stability index: 0.106 ± 0.034
[2]; [9]
  protein stability index: 0.0931 ± 0.026

## CFPFYVSCLLVL
[1]
  protein stability index: 0.321 ± 0.027
[2]; [3]
  protein stability index: 0.3061 ± 0.0023
[2]; [4]
  protein stability index: 0.311 ± 0.0064
[2]; [5]
  protein stability index: 0.281 ± 0.029
[2]; [6]
  protein stability index: 0.405 ± 0.019
[2]; [7]
  protein stability index: 0.25 ± 0.0066
[2]; [8]
  protein stability index: 0.256 ± 0.02
[2]; [9]
  protein stability index: 0.351 ± 0.0055

## CFTLSLCLAFFF
[1]
  protein stability index: 0.377 ± 0.014
[2]; [3]
  protein stability index: 0.41 ± 0.026
[2]; [4]
  protein stability index: 0.455 ± 0.013
[2]; [5]
  protein stability index: 0.403 ± 0.03
[2]; [6]
  protein stability index: 0.433 ± 0.0072
[2]; [7]
  protein stability index: 0.324 ± 0.017
[2]; [8]
  protein stability index: 0.334 ± 0.026
[2]; [9]
  protein stability index: 0.4091 ± 0.0024

## CGLLSALSCLVF
[1]
  protein stability index: 0.511 ± 0.02
[2]; [3]
  protein stability index: 0.507 ± 0.033
[2]; [4]
  protein stability index: 0.54 ± 0.011
[2]; [5]
  protein stability index: 0.442 ± 0.019
[2]; [6]
  protein stability index: 0.5533 ± 0.0036
[2]; [7]
  protein stability index: 0.4185 ± 0.0022
[2]; [8]
  protein stability index: 0.45 ± 0.017
[2]; [9]
  protein stability index: 0.552 ± 0.023

## CIVFVYCLFSCP
[1]
  protein stability index: 0.32 ± 0.0041
[2]; [3]
  protein stability index: 0.206 ± 0.0051
[2]; [4]
  protein stability index: 0.301 ± 0.038
[2]; [5]
  protein stability index: 0.213 ± 0.024
[2]; [6]
  protein stability index: 0.406 ± 0.041
[2]; [7]
  protein stability index: 0.209 ± 0.0024
[2]; [8]
  protein stability index: 0.207 ± 0.036
[2]; [9]
  protein stability index: 0.332 ± 0.027

## CKRWGVVSYVFV
[1]
  protein stability index: 0.493 ± 0.017
[2]; [3]
  protein stability index: 0.601 ± 0.069
[2]; [4]
  protein stability index: 0.6545 ± 0.0054
[2]; [5]
  protein stability index: 0.464 ± 0.025
[2]; [6]
  protein stability index: 0.655 ± 0.0067
[2]; [7]
  protein stability index: 0.418 ± 0.025
[2]; [8]
  protein stability index: 0.441 ± 0.024
[2]; [9]
  protein stability index: 0.61 ± 0.0099

## CLCFFLICFILF
[1]
  protein stability index: 0.3151 ± 0.002
[2]; [3]
  protein stability index: 0.252 ± 0.0092
[2]; [4]
  protein stability index: 0.255 ± 0.011
[2]; [5]
  protein stability index: 0.235 ± 0.019
[2]; [6]
  protein stability index: 0.391 ± 0.027
[2]; [7]
  protein stability index: 0.248 ± 0.0026
[2]; [8]
  protein stability index: 0.219 ± 0.032
[2]; [9]
  protein stability index: 0.333 ± 0.016

## CLCFFMSILWWV
[1]
  protein stability index: 0.4269 ± 0.0011
[2]; [3]
  protein stability index: 0.4741 ± 0.0038
[2]; [4]
  protein stability index: 0.498 ± 0.017
[2]; [5]
  protein stability index: 0.434 ± 0.035
[2]; [6]
  protein stability index: 0.5222 ± 0.0016
[2]; [7]
  protein stability index: 0.422 ± 0.015
[2]; [8]
  protein stability index: 0.374 ± 0.019
[2]; [9]
  protein stability index: 0.478 ± 0.0048

## CLCVLVSFFFGL
[1]
  protein stability index: 0.288 ± 0.074
[2]; [3]
  protein stability index: 0.41 ± 0.037
[2]; [4]
  protein stability index: 0.489 ± 0.041
[2]; [5]
  protein stability index: 0.35 ± 0.024
[2]; [6]
  protein stability index: 0.5006 ± 0.0024
[2]; [7]
  protein stability index: 0.316 ± 0.024
[2]; [8]
  protein stability index: 0.323 ± 0.027
[2]; [9]
  protein stability index: 0.4768 ± 0.0016

## CLFHQFITLLVN
[1]
  protein stability index: 0.0965 ± 0.019
[2]; [3]
  protein stability index: 0.0942 ± 0.009
[2]; [4]
  protein stability index: 0.177 ± 0.012
[2]; [5]
  protein stability index: 0.222 ± 0.026
[2]; [6]
  protein stability index: 0.2692 ± 0.0019
[2]; [7]
  protein stability index: 0.0508 ± 0.017
[2]; [8]
  protein stability index: 0.0593 ± 0.0052
[2]; [9]
  protein stability index: 0.0523 ± 0.01

## CLFLNCRFYMFL
[1]
  protein stability index: 0.821 ± 0.035
[2]; [3]
  protein stability index: 0.951 ± 0.021
[2]; [4]
  protein stability index: 0.898 ± 0.065
[2]; [5]
  protein stability index: 0.808 ± 0.04
[2]; [6]
  protein stability index: 0.89 ± 0.024
[2]; [7]
  protein stability index: 0.788 ± 0.014
[2]; [8]
  protein stability index: 0.796 ± 0.036
[2]; [9]
  protein stability index: 0.905 ± 0.011

## CLFSPFCFILFC
[1]
  protein stability index: 0.12318 ± 9.1e-05
[2]; [3]
  protein stability index: 0.0319 ± 0.013
[2]; [4]
  protein stability index: 0.0391 ± 0.0022
[2]; [5]
  protein stability index: 0.0898 ± 0.0084
[2]; [6]
  protein stability index: 0.11 ± 0.012
[2]; [7]
  protein stability index: 0.285 ± 0.021
[2]; [8]
  protein stability index: 0.074 ± 0.011
[2]; [9]
  protein stability index: 0.0686 ± 0.019

## CLTGWFGIFSAP
[1]
  protein stability index: 0.7344 ± 0.0021
[2]; [3]
  protein stability index: 0.708 ± 0.019
[2]; [4]
  protein stability index: 0.755 ± 0.025
[2]; [5]
  protein stability index: 0.678 ± 0.016
[2]; [6]
  protein stability index: 0.763 ± 0.02
[2]; [7]
  protein stability index: 0.695 ± 0.015
[2]; [8]
  protein stability index: 0.688 ± 0.027
[2]; [9]
  protein stability index: 0.737 ± 0.015

## CMIACYALLRLL
[1]
  protein stability index: 0.11 ± 0.039
[2]; [3]
  protein stability index: 0.176 ± 0.023
[2]; [4]
  protein stability index: 0.256 ± 0.011
[2]; [5]
  protein stability index: 0.346 ± 0.036
[2]; [6]
  protein stability index: 0.477 ± 0.0079
[2]; [7]
  protein stability index: 0.0799 ± 0.021
[2]; [8]
  protein stability index: 0.0777 ± 0.016
[2]; [9]
  protein stability index: 0.0702 ± 0.0087

## CPALYMPPPVLV
[1]
  protein stability index: 0.2594 ± 0.0017
[2]; [3]
  protein stability index: 0.114 ± 0.036
[2]; [4]
  protein stability index: 0.13 ± 0.012
[2]; [5]
  protein stability index: 0.191 ± 0.026
[2]; [6]
  protein stability index: 0.238 ± 0.01
[2]; [7]
  protein stability index: 0.14 ± 0.03
[2]; [8]
  protein stability index: 0.182 ± 0.015
[2]; [9]
  protein stability index: 0.215 ± 0.0041
